# Measured values: patent publication US20170320960A1
# Biological target: hMFI2-ECD-His (extracellular domain of human MFI2, residues G20-C709, with Histidine tag) (human) (UniProt P08582)
# Test: SPR (BIAcore 2000): antibody captured, monomeric MFI2-His flowed, 1:1 Langmuir fit; species not given, taken as hMFI2-His
# Sequence of hMFI2-ECD-His (extracellular domain of human MFI2, residues G20-C709, with Histidine tag) (human) (P08582 20-709 limits assumed, form in doubt): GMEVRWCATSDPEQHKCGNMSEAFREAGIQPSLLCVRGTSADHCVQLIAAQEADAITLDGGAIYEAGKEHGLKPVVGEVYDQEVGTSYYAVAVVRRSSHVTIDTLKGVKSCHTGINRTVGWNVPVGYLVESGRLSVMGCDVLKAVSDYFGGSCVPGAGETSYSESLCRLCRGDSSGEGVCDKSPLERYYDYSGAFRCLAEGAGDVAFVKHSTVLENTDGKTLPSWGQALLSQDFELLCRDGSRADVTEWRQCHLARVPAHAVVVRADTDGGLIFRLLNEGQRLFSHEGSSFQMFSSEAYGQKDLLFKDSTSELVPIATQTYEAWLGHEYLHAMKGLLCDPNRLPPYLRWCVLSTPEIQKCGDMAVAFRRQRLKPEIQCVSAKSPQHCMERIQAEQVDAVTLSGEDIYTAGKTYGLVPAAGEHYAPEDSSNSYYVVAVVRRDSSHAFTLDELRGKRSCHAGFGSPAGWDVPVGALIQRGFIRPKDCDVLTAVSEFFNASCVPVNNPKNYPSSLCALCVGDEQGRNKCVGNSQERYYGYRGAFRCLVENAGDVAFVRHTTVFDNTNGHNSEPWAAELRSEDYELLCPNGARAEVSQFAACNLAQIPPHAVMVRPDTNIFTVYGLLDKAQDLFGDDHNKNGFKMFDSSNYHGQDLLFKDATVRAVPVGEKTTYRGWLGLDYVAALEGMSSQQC
row,Binder,Kd [nM]
1,"hSC57.5 (antibody, human IgG1, kappa, V domains shown) VH: EVQLVQSGAEVKKPGESLKISCKGSGYSFTDYYLHWVRQMPGKGLEWMGRINPYNGATSYNQIFKDQVTISADKSISTAYLQWSSLKASDTAMYYCARGGDYDFPWYWGQGTTVTVSS VL: DIQMTQSPSSLSASVGDRVTITCKASQDVYAAVAWYQQKPGKAPKLLIYWASTRHAGVPSRFSGSGSGTDFTLTISSLQPEDFATYYCQQHYRTPWTFGQGTKVEIKR",4.4
2,"SC57.46 (antibody, V domains shown) VH: QVQLKESGPGLVAPSQSLSITCTVSGFSLTSYGVHWVRQPPGKGLEWLGIIWAGGTTNYNSALMSRLSIRKDNSKSQVFLKMNSLQTDDTAMYYCARDRGYDGYFDYAVDYWGQGTSVTVSS VL: DIQMTQSPPSLSASVGETVTITCRTSENIYSYLTWYQQKQGKSPQLLVYNAKTLAEGVPSRFSGSGSGTQFSLKINSLQPEDFGSYYCQHHYGTPLTFGAGTKLELK",4.5

# The remaining binders from weak to strong by Kd, led by results:
row,Kd [nM],Binder
1,3.2,"SC57.11 (antibody, V domains shown) VH: QVQLQQSGAELMKPGASVKISCKATGYTFSNYRIEWMKQRPGHGLEWIGEILPRTGNTNYNENFKGKATFTADTSSNTAYIQLSSLTSEDSAVYYCARDDGYYGRFAYWGQGTLVTVSA VL: DIQMTQTTSSLSASLGDRVTISCRASQDISSYLNWYQQKPDGTVKLLIYYTSRLHSGVPSRFSGSGSGTDYSLTINNLEQEDIATYFCQQGNTLPPTFGGGTKLEIK"
2,1.1,"SC57.5 (antibody, V domains shown) VH: EVQLQQSGPELVKPGASVKISCKASGYSFTDYYLHWVKQSHVKSLEWIGRINPYNGATSYNQIFKDKASLTVDKSSSTAYMDLHSLTSEDSAVYYCARGGDYDFPWYWGQGTTLTVSP VL: DIVMTQSHKFMSTSVGDRVSITCKASQDVYAAVAWYHQKPGQSPKLLIYWASTRHAGVPDRFTGSGSGTDYTLTISSVQAEDLALYYCQQHYRTPWTFGGGTKLEIK"
